± gives the uncertainty stated by the source.
Assay: amyloid nucleation score (Sup35N fusion, yeast selection) (log enrichment); library NNK2; higher = more nucleation; inactive = no reads after selection
Summary of the method: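 After 24 hours of induction with 100 μM copper sulfate, psi-negative yeast expressing peptides of 20 random codons fused to Sup35N were grown for 7 days at 30°C on medium lacking adenine and uracil. Input and output plasmid inserts were sequenced with Illumina, and sequences with under 100 input reads were discarded. Scores for nucleation are the DiMSum log enrichment of output over input reads, centred on the mode score of non-aggregating sequences.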

Point of comparison: QRCISGNTNSVCRLEYRWLM, amyloid nucleation score 0.396 ± 0.44. Against it:
- QDVGNKLKIWANITCARLWY — within error, -0.067 ± 0.65
- QDVSYPSWYPGAFC — within error, -0.675 ± 1.1
- QEELSWSS — within error, 0.131 ± 0.25
- QETFDFCM — lower, -1.65 ± 0.64
- QEVFSN — within error, -0.849 ± 1.1
- QFDAWAYMDRTPHGDSYRAA — within error, 0.237 ± 0.65
- QFLAIFCSIT — higher, 7.684 ± 0.043
- QFNFCKLAGQPLMFEFIDGV — higher, 5.58 ± 0.059
- QFNYHNLNLTNFKSLCASTD — within error, 0.019 ± 0.61
- QFPTCVHKPSCWDF — within error, 0.291 ± 0.5
- QGCPFWYNYVLVYSVSGGIS — higher, 2.36 ± 0.14
- QGELYRSANLLFVAEVSSWR — within error, 0.561 ± 0.64
- QGKNAFAGLGYMSHKRRMWG — within error, 0.686 ± 0.39
- QGLGTRLRDRLTVYCRFTAF — lower, -0.69 ± 0.61
- QGSKDRSYINKYRDRFCLTD — within error, -0.304 ± 1.1
- QGTQWFLLKVSAIVKQLRWT — within error, -0.317 ± 0.79
- QHLFFIYSCYTKLGGTLAGE — within error, 0.746 ± 0.2
- QHSKD — lower, -1.71 ± 0.77
- QHYLKPAMARQSLKGIFDQD — within error, -0.595 ± 0.61
- QIASYDFCHRVGRMGPTVCV — within error, -0.165 ± 0.54
- QILNGSAY — lower, -0.899 ± 0.3
- QILPWGVSMEKL — lower, -0.492 ± 0.41
- QIRPLRKRELYSW — higher, 2.64 ± 0.066
- QKKLDLQ — within error, -0.673 ± 1
- QKLIRWCVKLG — higher, 4.24 ± 0.062
- QKMRPNIKVFVYKNVGYNWC — higher, 8.562 ± 0.054
- QKYRVL — lower, -0.611 ± 0.32
- QLDRCLILPWTFSWCMDCVL — higher, 4.92 ± 0.053
- QLHSLKKKRKY — lower, -0.625 ± 0.28
- QLLRCNRRSKMLDR — within error, -0.156 ± 0.76
- QLNAVDMAKPVVGLFREQSY — within error, -0.15 ± 0.39
- QLPFWGWNCMAKLTVTLHSR — higher, 1.22 ± 0.29
- QLVGDELMRCSNGAVDKNVA — higher, 1.75 ± 0.24
- QLWSAWWHTVKKTGRRWWHR — within error, 0.921 ± 0.19
- QMCIVDTNGRN — within error, 0.861 ± 0.6
- QMNVSTYSCNLD — within error, 0.044 ± 1.1
- QMTLVHK — higher, 1.67 ± 0.39
- QNCSHGSLCG — within error, -0.022 ± 0.25
- QNKSIDSHAVGGIRVDDYRR — within error, -0.088 ± 0.31
- QNLSSLFKVYGTSSC — lower, -0.953 ± 0.38
- QQHYLEEPDDESLVRGCRHW — within error, -0.039 ± 0.54
- QQVQNAVCGWESYCSQLNRR — within error, -0.241 ± 0.48
- QRLVSLYFRLSDGHMD — higher, 3.3 ± 0.06
- QRPAGYHQTLSVARQRLRPD — within error, -0.73 ± 0.76
- QSFNVCCWLGEMDVLYSSIT — higher, 8.997 ± 0.038
- QSGFEVSCLSDMDSCYRSRN — within error, 0.509 ± 0.31
- QSLSSYHLNFSALRSVPWP — within error, 0.043 ± 0.38
- QSLSTKRRSVFFAGHQARGK — within error, -0.42 ± 0.64
- QSVYFILNNFKWFPGSTGM — higher, 7.062 ± 0.048
- QSYMSGKYVVLVQRGEVFSF — lower, -1.21 ± 0.49
- QTFDYW — within error, 0.256 ± 0.74
- QTPIGK — within error, -0.66 ± 1.1
- QVCDRILTWSRLPLSISRVR — within error, 0.062 ± 0.79
- QVKFLRDFEGFCMMMKHSSR — lower, -0.395 ± 0.26
- QVLVWQHMGRSTVLMLY — within error, -0.58 ± 0.55
- QVSLMKVGWITMTPLGLHSL — higher, 4.03 ± 0.069
- QVVEYN — within error, -0.047 ± 0.33
- QVWSFDGCS — within error, -0.15 ± 0.4
- QWLKTVSLS — within error, 0.449 ± 0.8
- QWMRSWNDTGRAES — higher, 2.13 ± 0.1
- QWMVLQSDRGAEMIARA — higher, 1.29 ± 0.2
- QWRFGRG — higher, 1.16 ± 0.26
- QWWRYS — within error, 1.17 ± 0.41
- QYSYGWHLRTIRIRRTCTGS — higher, 1.15 ± 0.31
- RAACFSAAHRTDWTWPDGDM — higher, 2.49 ± 0.19
- RALLCGSDVSKRNHGRSFVF — within error, 0.05 ± 1
- RALLRFMLWFCEIPD — within error, 0.94 ± 0.74
- RALVD — within error, -0.548 ± 1.1
- RAMHQDSVFVRWVEPPYCWC — within error, -0.024 ± 1
- RAPVSWRLK — within error, 0.267 ± 0.42
- RASANYRSSYFERSPDVVRE — higher, 3.63 ± 0.14
- RAVDDYRE — within error, 0.88 ± 0.3
- RCIDSVLIMHITYFAAFGKL — higher, 5.08 ± 0.099
- RCIYWHVTVIFIMDIWVRTY — within error, 0.415 ± 0.17
- RCKCNAIEVT — within error, 0.565 ± 0.2
- RCLVREISNPDGSDSIIWLR — within error, -0.574 ± 0.55
- RCNMLDRYPSVGRNPVLMVV — within error, 0.063 ± 1.1
- RCQTFLGKETPSFYRKIVKF — lower, -1.02 ± 0.55
- RCSGVP — within error, 0.908 ± 0.23

With QGRLSPY the amyloid nucleation score was “inactive”.
In the case of QIMLAGLRSLDLTVDRTFNS, the amyloid nucleation score is reported as “inactive”.
For QKYWCDFSNK, the amyloid nucleation score was “inactive”.
For QLKSFR, the amyloid nucleation score was “inactive”.
For QRVSRYNLLRARPGKIAEHF, the amyloid nucleation score was “inactive”.
For QSQSSNCYDFIRTNDRKSIC, the amyloid nucleation score was “inactive”.
For QSRQFLSVYFYLFFLFFSFL, the amyloid nucleation score was “inactive”.
